Laboratory results: US20040185113A1, “Fine inorganic particles having drug included therein, method for preparation thereof and pharmaceutical preparation comprising fine inorganic particles having drug included therein” (priority 2001, published 2004)

Assay: G-CSF release test and stability of G-CSF in buffer solution at room temperature
Type: physicochemical
Conditions: 1% BSA/Tris-HCl (pH 7.2), ELISA, FIG. 4
Description: Six hundred fifty μl of 5M CaCl2 was admixed with 250 μl of 500 μg/ml G-CSF with stirring. Then 2.5 ml of 1M Na2CO3 was added and stirred for 10 minutes to prepare CaCO3 particles. Five ml of H2O was added to the particles, and the mixture was centrifuged at 2,000 rpm for 5 min to remove the supernatant. To the resultant precipitate, 12.5 ml of H2O was added, and 1 ml of the mixture was taken into a 2.0 ml test tube. The test tube and content was centrifuged at 2,000 rpm for 5 min to remove the supernatant which was used for ELISA. To the resultant precipitate, 1 ml of 1% BSA/Tris—HCl (pH 7.2) was added and shaken at room temperature. The mixture was centrifuged every 24 hours at 2,000 rpm for 5 min to collect the supernatant and to the resultant precipitate 1 ml of 1% BSA/Tris—HCl (pH 7.2) was added again, and this operation was continued for 7 days. The last precipitate was dissolved with hydrochloric acid and used for ELISA. G-CSF was assayed using ELISA Kit manufactured by IBL Co. and the total (cumulative) amount of G-CSF released from the G-CSF-encapsulating CaCO3 preparation was shown. […] A part of the mixture was collected every 24 hours, and the amount of G-CSF was determined by ELISA to examine the stability of G-CSF at room temperature.

B1: free G-CSF: granulocyte colony-stimulating factor (Chugai Pharmaceutical) in 1% BSA/Tris-HCl solution, control (protein, UniProt P09919 31-207, looked up)
Granulocyte …: TPLGPASSLPQSFLLKCLEQVRKIQGDGAALQEKLVSECATYKLCHPEELVLLGHSLGIPWAPLSSCPSQALQLAGCLSQLHSGLFLYQGLLQALEGISPELGPTLDTLQLDVADFATTIWQQMEELGMAPALQPTQGAMPAFASAFQRRAGGVLVASHLQSFLEVSYRVLRHLAQP
stability of G-CSF: unstableness
